In this assay the test system is HT1080 cells (αv integrin). Nature of the assay: Adhesion of HT1080 cells to mutant human ICAM-4Fc. In kind it is cell-based. As to conditions: FIG. 4; single residue mutants of human ICAM-4Fc, titrated coating concentration. How it is done:
Cell adhesion assays were performed as described in Spring et al. 2001 (supra). Immulon4 96 well plates (Dynex Technologies, Billingshurst, United Kingdom) were coated with 1 μg/well goat-antihuman-Fc (Sigma, Poole, United Kingdom) for 24 hours at 4° C., washed three times with PBS and coated with an Fc fusion ICAM-4 protein for 18 hours at 4° C. before blocking with 0.4% BSA PBS for 2 hours at 22° C. Cells were labelled with 10 μg/ml 2′,7′-bis-(2-carboxyethyl)-5-(and-6-) carboxyfluorescein acetoxymethyl ester in assay buffer (IMEM, 2 mM EGTA, 10 μg/ml human ivIgG) for 15 minutes at 37° C. HT1080 cells were activated with 80 μM phorbol myristate acetate prior to both cells being washed with assay buffer containing 2 mM Mn^2+. Cells, at 5×10^4 cells per well, were added to the ICAM-4Fc-coated plates for 30 minutes at 37° C., prior to being given repeated washes in assay buffer and read on a fluorescence microplate reader (excitation 485 nm, emission 530 nm). The percentage of bound cells was calculated after each wash. Peptide inhibition was performed by incubating the cells with 500 μM peptide at 0° C. for 15 minutes ahead of their addition, still in the presence of 500 μM peptide to the ICAM-4Fc coated plates. In peptide inhibition studies the appropriate ICAM-4Fc coating concentration for each cell line was pre-determined by titration of ICAM-4Fc and the lowest concentration at which maximal binding was achieved was used to coat the plates
Point mutations were inserted into ICAM-4 in pIg vector (see Simmons D L, 1993, Cloning cell surface molecules by transient expression in mammalian cells, In: Hartley D A, ed. Cellular interactions in development. New York, N.Y.:IRL press, 93-127) by PCR amplification over two stages. Oligonucleotides (see “Mutagenesis primers” below) containing mismatched bases, together with 5′-[…] (SEQ ID NO: 14) and 3′-[…] (SEQ ID NO: 15) primers were used to generate two overlapping products. Following gel purification the two overlapping PCR products were annealed together before final amplification using the 5′ and 3′ primers. The final PCR product was restricted and ligated into pIg vector. All mutant clones were verified by sequence analysis. Mutant ICAM-4Fc proteins were expressed in COS-7 cells as described in Simmons D L (1993, supra), and purified from culture supernatant on protein A-Sepharose.

B1: F18A mutant: human ICAM-4Fc fusion protein with point mutation F18A (protein)
chain: AQSPKGSPLAPSGTSVPAWVRMSPEFVAVQPGKSVQLNCSNSCPQPQNSSLRTPLRQGKTLRGPGWVSYQLLDVRAWSSLAHCLVTCAGKTRWATSRITAYKPPHSVILEPPVLKGRKYTLRCHVTQVFPVGYLVVTLRHGSRVIYSESLERFTGLDLANVTLTYEFAAGPRDFWQPVICHARLNLDGLVVRNSSAPITLMLAWSPAPTA
modifications: left off: a dimerising Fc or GST
notes: human ICAM-4Fc fusion protein with point mutation F18A
In the case of B1, the “adhesion of HT1080 cells to mutant ICAM-4Fc compared with wild-type” value (from here on “adhesion … compared with wild-type”) is given as “decrease in binding”.

B2: A94L mutant: human ICAM-4Fc fusion protein with point mutation A94L (protein)
chain: AQSPKGSPLAPSGTSVPFWVRMSPEFVAVQPGKSVQLNCSNSCPQPQNSSLRTPLRQGKTLRGPGWVSYQLLDVRAWSSLAHCLVTCAGKTRWLTSRITAYKPPHSVILEPPVLKGRKYTLRCHVTQVFPVGYLVVTLRHGSRVIYSESLERFTGLDLANVTLTYEFAAGPRDFWQPVICHARLNLDGLVVRNSSAPITLMLAWSPAPTA
modifications: left off: a dimerising Fc or GST
notes: human ICAM-4Fc fusion protein with point mutation A94L
On to B2, for which the “adhesion … compared with wild-type” value is “decrease in binding”.

B3: R92E mutant: human ICAM-4Fc fusion protein with point mutation R92E (protein)
chain: AQSPKGSPLAPSGTSVPFWVRMSPEFVAVQPGKSVQLNCSNSCPQPQNSSLRTPLRQGKTLRGPGWVSYQLLDVRAWSSLAHCLVTCAGKTEWATSRITAYKPPHSVILEPPVLKGRKYTLRCHVTQVFPVGYLVVTLRHGSRVIYSESLERFTGLDLANVTLTYEFAAGPRDFWQPVICHARLNLDGLVVRNSSAPITLMLAWSPAPTA
modifications: left off: a dimerising Fc or GST
notes: human ICAM-4Fc fusion protein with point mutation R92E
As to B3, the “adhesion … compared with wild-type” value was “decrease in binding”.

B4: V20T mutant: human ICAM-4Fc fusion protein with point mutation V20T (protein)
chain: AQSPKGSPLAPSGTSVPFWTRMSPEFVAVQPGKSVQLNCSNSCPQPQNSSLRTPLRQGKTLRGPGWVSYQLLDVRAWSSLAHCLVTCAGKTRWATSRITAYKPPHSVILEPPVLKGRKYTLRCHVTQVFPVGYLVVTLRHGSRVIYSESLERFTGLDLANVTLTYEFAAGPRDFWQPVICHARLNLDGLVVRNSSAPITLMLAWSPAPTA
modifications: left off: a dimerising Fc or GST
notes: human ICAM-4Fc fusion protein with point mutation V20T
Turning to B4, the “adhesion … compared with wild-type” value was “decrease in binding”.

B5: W19A mutant: human ICAM-4Fc fusion protein with point mutation W19A (protein)
chain: AQSPKGSPLAPSGTSVPFAVRMSPEFVAVQPGKSVQLNCSNSCPQPQNSSLRTPLRQGKTLRGPGWVSYQLLDVRAWSSLAHCLVTCAGKTRWATSRITAYKPPHSVILEPPVLKGRKYTLRCHVTQVFPVGYLVVTLRHGSRVIYSESLERFTGLDLANVTLTYEFAAGPRDFWQPVICHARLNLDGLVVRNSSAPITLMLAWSPAPTA
modifications: left off: a dimerising Fc or GST
notes: human ICAM-4Fc fusion protein with point mutation W19A
Take B5: the “adhesion … compared with wild-type” value is on record as “decrease in binding”.

B6: R97E mutant: human ICAM-4Fc fusion protein with point mutation R97E (protein)
chain: AQSPKGSPLAPSGTSVPFWVRMSPEFVAVQPGKSVQLNCSNSCPQPQNSSLRTPLRQGKTLRGPGWVSYQLLDVRAWSSLAHCLVTCAGKTRWATSEITAYKPPHSVILEPPVLKGRKYTLRCHVTQVFPVGYLVVTLRHGSRVIYSESLERFTGLDLANVTLTYEFAAGPRDFWQPVICHARLNLDGLVVRNSSAPITLMLAWSPAPTA
modifications: left off: a dimerising Fc or GST
notes: human ICAM-4Fc fusion protein with point mutation R97E
Turning to B6, the “adhesion … compared with wild-type” value is “decrease in binding”.

B7: T162V mutant: human ICAM-4Fc fusion protein with point mutation T162V (protein)
chain: AQSPKGSPLAPSGTSVPFWVRMSPEFVAVQPGKSVQLNCSNSCPQPQNSSLRTPLRQGKTLRGPGWVSYQLLDVRAWSSLAHCLVTCAGKTRWATSRITAYKPPHSVILEPPVLKGRKYTLRCHVTQVFPVGYLVVTLRHGSRVIYSESLERFTGLDLANVVLTYEFAAGPRDFWQPVICHARLNLDGLVVRNSSAPITLMLAWSPAPTA
modifications: left off: a dimerising Fc or GST
notes: human ICAM-4Fc fusion protein with point mutation T162V
As for B7, the “adhesion … compared with wild-type” value is listed as “elevated level of adhesion”.

B8: W66A mutant: human ICAM-4Fc fusion protein with point mutation W66A (protein)
chain: AQSPKGSPLAPSGTSVPFWVRMSPEFVAVQPGKSVQLNCSNSCPQPQNSSLRTPLRQGKTLRGPGAVSYQLLDVRAWSSLAHCLVTCAGKTRWATSRITAYKPPHSVILEPPVLKGRKYTLRCHVTQVFPVGYLVVTLRHGSRVIYSESLERFTGLDLANVTLTYEFAAGPRDFWQPVICHARLNLDGLVVRNSSAPITLMLAWSPAPTA
modifications: left off: a dimerising Fc or GST
notes: human ICAM-4Fc fusion protein with point mutation W66A
Regarding B8, the “adhesion … compared with wild-type” value is listed as “decrease the level of adhesion”.

B9: K118E mutant: human ICAM-4Fc fusion protein with point mutation K118E (protein)
chain: AQSPKGSPLAPSGTSVPFWVRMSPEFVAVQPGKSVQLNCSNSCPQPQNSSLRTPLRQGKTLRGPGWVSYQLLDVRAWSSLAHCLVTCAGKTRWATSRITAYKPPHSVILEPPVLKGREYTLRCHVTQVFPVGYLVVTLRHGSRVIYSESLERFTGLDLANVTLTYEFAAGPRDFWQPVICHARLNLDGLVVRNSSAPITLMLAWSPAPTA
modifications: left off: a dimerising Fc or GST
notes: human ICAM-4Fc fusion protein with point mutation K118E
As to B9, the “adhesion … compared with wild-type” value is given as “decrease the level of adhesion”.

B10: T95V mutant: human ICAM-4Fc fusion protein with point mutation T95V (protein)
chain: AQSPKGSPLAPSGTSVPFWVRMSPEFVAVQPGKSVQLNCSNSCPQPQNSSLRTPLRQGKTLRGPGWVSYQLLDVRAWSSLAHCLVTCAGKTRWAVSRITAYKPPHSVILEPPVLKGRKYTLRCHVTQVFPVGYLVVTLRHGSRVIYSESLERFTGLDLANVTLTYEFAAGPRDFWQPVICHARLNLDGLVVRNSSAPITLMLAWSPAPTA
modifications: left off: a dimerising Fc or GST
notes: human ICAM-4Fc fusion protein with point mutation T95V
As to B10, the “adhesion … compared with wild-type” value is given as “decrease in binding”.

B11: N160A mutant: human ICAM-4Fc fusion protein with point mutation N160A (protein)
chain: AQSPKGSPLAPSGTSVPFWVRMSPEFVAVQPGKSVQLNCSNSCPQPQNSSLRTPLRQGKTLRGPGWVSYQLLDVRAWSSLAHCLVTCAGKTRWATSRITAYKPPHSVILEPPVLKGRKYTLRCHVTQVFPVGYLVVTLRHGSRVIYSESLERFTGLDLAAVTLTYEFAAGPRDFWQPVICHARLNLDGLVVRNSSAPITLMLAWSPAPTA
modifications: left off: a dimerising Fc or GST
notes: human ICAM-4Fc fusion protein with point mutation N160A
Turning to B11, the “adhesion … compared with wild-type” value is recorded as “elevated level of adhesion”.

B12: S96A mutant: human ICAM-4Fc fusion protein with point mutation S96A (protein)
chain: AQSPKGSPLAPSGTSVPFWVRMSPEFVAVQPGKSVQLNCSNSCPQPQNSSLRTPLRQGKTLRGPGWVSYQLLDVRAWSSLAHCLVTCAGKTRWATARITAYKPPHSVILEPPVLKGRKYTLRCHVTQVFPVGYLVVTLRHGSRVIYSESLERFTGLDLANVTLTYEFAAGPRDFWQPVICHARLNLDGLVVRNSSAPITLMLAWSPAPTA
modifications: left off: a dimerising Fc or GST
notes: human ICAM-4Fc fusion protein with point mutation S96A
As to B12, the “adhesion … compared with wild-type” value was “decrease in binding”.

These data come from patent US20060252116A1, “Icam-4 binding sites” (priority 2002, published 2006).
